Source: US20220315628A1

How the values were obtained:
[1] = molecular target: W1G2 peptide (XGVECK-biotin with X = Trp); test: SPR; KD for the Trp peptide divided by KD for the Trp peptide
[2] = molecular target: F1G2 peptide (XGVECK-biotin with X = Phe); test: SPR dissociation curves; biotinylated peptide on streptavidin chip
[3] = molecular target: W1G2 peptide (XGVECK-biotin with X = Trp); test: as above
[4] = molecular target: Y1G2 peptide (XGVECK-biotin with X = Tyr); test: as above
[5] = molecular target: Y1G2 peptide (XGVECK-biotin with X = Tyr); test: SPR; KD for the Tyr peptide divided by KD for the Tyr peptide
[6] = molecular target: Y1G2 peptide (XGVECK-biotin with X = Tyr); test: SPR; KD for the Tyr peptide divided by KD for the Trp peptide
[7] = molecular target: F1G2 peptide (XGVECK-biotin with X = Phe); test: SPR; KD for the Phe peptide divided by KD for the Tyr peptide
[8] = molecular target: Y1G2 peptide (XGVECK-biotin with X = Tyr); test: SPR; KD for the Tyr peptide divided by KD for the Phe peptide
[9] = molecular target: F1G2 peptide (XGVECK-biotin with X = Phe); test: SPR; KD for the Phe peptide divided by KD for the Trp peptide
[10] = molecular target: F1G2 peptide (XGVECK-biotin with X = Phe); test: SPR; KD for the Phe peptide divided by KD for the Phe peptide
[11] = molecular target: W1G2 peptide (XGVECK-biotin with X = Trp); test: SPR; KD for the Trp peptide divided by KD for the Phe peptide
[12] = molecular target: W1G2 peptide (XGVECK-biotin with X = Trp); test: SPR; KD for the Trp peptide divided by KD for the Tyr peptide
[13] = molecular target: F1G2 peptide (XGVECK-biotin with X = Phe); test: SPR, steady state; biotinylated peptide on streptavidin chip, protein in solution
[14] = molecular target: W1G2 peptide (XGVECK-biotin with X = Trp); test: as above
[15] = molecular target: Y1G2 peptide (XGVECK-biotin with X = Tyr); test: as above

B1: A. tumefaciens ClpS2 [Pro34 Arg35 Glu36], wild-type, expressed in and purified from E. coli (protein)
chain: MGHHHHHHENLYFQGSDSPVDLKPKPKVKPKLERPKLYKVMLLNDDYTPREFVTVVLKAVFRMSEDTGRRVMMTAHRFGSAVVVVCERDIAETKAKEATDLGKEAGFPLMFTTEPEE
In the case of B1, the Selectivity for Trp, Trp/Trp [1] is reported as 1, the koff [2] is reported as 0.93 s⁻¹ and the koff [3] is reported as 1.32 s⁻¹. For the same binder, the koff [4] was 1.16 s⁻¹, the Selectivity for Tyr, Tyr/Tyr [5] was 1 and the Selectivity for Tyr, Tyr/Trp [6] was 3.43. It also gave a Selectivity for Phe, Phe/Tyr [7] of 0.21, a Selectivity for Tyr, Tyr/Phe [8] of 4.86 and a Selectivity for Phe, Phe/Trp [9] of 0.71. It also gave a Selectivity for Phe, Phe/Phe [10] of 1, a Selectivity for Trp, Trp/Phe [11] of 1.42 and a Selectivity for Trp, Trp/Tyr [12] of 0.29. For the same binder, the Kd [13] was 13 µM, the Kd [14] was 18.4 µM and the Kd [15] was 63 µM.
